Among the data in PMC5551578 (The Journal of Experimental Medicine, 2017) are binding result and Kd values, retold here.

Substitutions are numbered along the chain they refer to.

Usually Kd stands for the equilibrium constant for the complex coming apart. High values mean lower affinity, low ones higher affinity.

The labels stand for the following.
B1: TT-Ab5 (antibody, V domains shown)
VH: EVQLVQSGAEVKKPGSSVKVSCTAPGVTFSTYPIDWVRQAPGQGLEWMGGIIPISGSPKYAQKFQGRVAITADGFTNTAYLELSSLRSEDTAVYYCATRESGYDGQFDYWGQGTLVTVSS
VL: QSVLTQPPSASGTPGQRVTISCTGSTSNIGNNYVYWYQQVPGTAPTLLIYRSNQRPSGVPDRFSGSKSGTSASLAISGLRSEDEADYYCATWDDSLGVVFGGGTKLTVL
B2: TT-Ab1 (antibody, V domains shown)
VH: QVQLQESGAEVKNLGASVKVSCKASGYIFTNYGITWVRQAPGQGLEWIGWTTIYNGNTNYARKLQGRVTMTTGTSTRTAYMELRSLKSDDTAMYYCARGLRHYHDGSPLEYWGQETTVTVSS
VL: DIVMTQSPGTLSLSPGERVTLSCRASQSVGSSYLAWYQQKPGQTPRLLVFGASSRATGIPDRFSGSGSGTDFTLTISRLEPEDFAVYYCQLYGNSLITFGQGTRLEIK
B3: TT-Ab2 (antibody, V domains shown)
VH: EVQLVESGAEVKKPGASVKLSCKASGYTVTSDYMHWVRQAPGQGLEWMGIINPSDGSTNYPRKFQGRVTMTRDTSTRTVYMEVSSLRSEDTAVYYCAGGGQRFTFDYWGQGATVTVSS
VL: QSALTQPASVSGSPGQSITISCTGTSGNVGSHNLVSWYQQHPGEAPKLVISDINRRPSGVSNRFSGSKSGNTASLTISGLQAEDEADYFCCSYAGNSNVIFGGGTKLTVL
B4: TT-Ab6 (antibody, V domains shown)
VH: EVQLLESGGGLVRPGGSLRLSCAASGFSFNDHYMTWVRQAPGKGLEWVSYISDGRVTTNYAASVKGRFIISRDNTKKTVYLQMNSLTAEDTAVYYCARVGPWPVMKGAFDSWGQGTLVTVSS
VL: DIQMTQSPGTLSLSPGERATISCRASQSVSSDYLVWYQQKPGQAPRLLIYGASRRATGIPDRFSGSGSGTDFTLTISRLEPEDFAVYYCQQYGSSPLFAFGPGTKVEIK
B5: TT-Ab8 (antibody, V domains shown)
VH: EVQLVESGGGLVQPGGSLRLSCAASGFTFSYYDMNWVRQAPGKGLEWLSYISGSGGVIYYADSVKGRFTISRDNAKNSLFLQMNSLRAEDTAVYYCARDPSPGRLGFFDYWGQGTLVTVSS
VL: EIVMTQSPAILSVSPGERATLSCRASQRVSSNLAWYQQKPGQAPRLLIYGASTRATGIPARFSGSGSGTEFTLTISSLQSEDCAIYYCQQYNNWPRTFGQGTKVEIK
B6: H7-Ab6 (antibody, V domains shown)
VH: EVQLVESGGGLVKPGGSLRLSCTASGFTFSDYPMSWVRQAPGKGLEWLSSISTGSTYIYYADSVKGRFTISRDNAQNSMYLQMNSLRAEDTAIYYCARGAKVELALGWYFDLWGRGTLVTVSS
VL: QSVLTQPPSVSAAPGQKVTISCSGSNSNIGNNFVSWYQQLPGTAPKLLIYDNNKRPSGIPDRVSGSKSGTSATLGITGLQTGDEADYYCGTWDNRLSAAVFGGGTKLTVL
B7: H7-Ab7 (antibody, V domains shown)
VH: QVQLQESGGGLVQPGGSLRLSCAASGFTFSAYAMNWVRQAPGKGLDWVSGIGGNGGITKYADSVKGRFTISRDNSKKTLYLQMNSLTAEDTAVYYCAKDASWDVRGWFDPWGQGTLVTVSS
VL: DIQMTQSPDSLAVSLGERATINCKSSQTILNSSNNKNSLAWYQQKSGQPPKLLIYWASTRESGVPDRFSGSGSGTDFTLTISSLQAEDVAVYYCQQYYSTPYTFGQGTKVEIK
B8: H7-Ab8 (antibody, V domains shown)
VH: EVQLVQSGGGVVLPGRSLRLSCAASGFTFSNHGMHWVRQAPGKGLEWMAVIWSDGTTKYYADSVKGRFTISRDNSKNTVYLQMNSLRAEDTAVYYCAREVIYSGYFFDHWGQGTTVTVSS
VL: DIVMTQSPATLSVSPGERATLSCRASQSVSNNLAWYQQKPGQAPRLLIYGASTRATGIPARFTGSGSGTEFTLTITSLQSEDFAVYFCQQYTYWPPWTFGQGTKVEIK
B9: H7-Ab10 (antibody, V domains shown)
VH: WVQLVESGGGLVQPGGSLRLSCVDSGSTFSKYWMTWVRQAPGKGLEWVANIKEDGSKEYYMESLKGRFTISRDNAKNSLYLQISTLRAEDTAVYYCATSSGWRFEVWGRGTTVTVSS
VL: QSALTQPPSASGSPGQSVTISCTGTSSDVGTYNYVSWYQQQADKAPKLIIFDVDKRPSGVPDRFSGSKSGNTASLTVSGLQADDEADYYCSSYAGTKHWIFGGGTKLTVL
B10: H7-Ab12 (antibody, V domains shown)
VH: EVQLVESGPGLVKPAQTLSLTCTVSGGSISSGGDYWSWIRQHPGKGLEWIGYIYYSGNAFYNPSLKSRVSMSVDTSKNQFSLKLSSVSAADTAVYYCARVRGVYFWGQGTLATVSS
VL: EIVMTQSPGTLSLSPGERATLSCRASQSVSSSHLAWYQQKPGQAPRLLIYGASSRATGIPDRFSGSGSGTDFTLTISRLEPEDFAVYYCQQYGSSLPPWTFGQGTKVEIK
B11: H7-Ab14 (antibody, V domains shown)
VH: EVQLVESGPRLVKPSGTLSLTCAVSDDSISSAGYYWGWIRQSPGKGLEWIAAFFFGGSAYYNPSLKSRLTISTDTSENQFSLSLASVTAADTAVYYCAVIQLSTPPVPFEIWGQGTLVTVSS
VL: EIVMTQSPGTLSLSPGERATLSCRASQIISSNYLAWYQQKPGQAPRLLIFGASSRATGTPDRFSGSGSGTDFTLTISRLEPEDFVVYYCHQYDSSWYTFGQGTKVEIK
B12: H7-Ab11 (antibody, V domains shown)
VH: QVQLQESGPRLVKPSQTLSLTCAVSGGSITSNDYNWSWIRQHPGKGLEWIGYIYHSGNTFYNPALESRVSMSVDTSKNQFSLRLTSVTAADTAVYFCARTQRSTVAHIVGPVQGRFHFDYWSQGTLVTVSS
VL: DIQMTQSPGTLSLSPGERVTLSCRASRSVSPYYLAWYQQKPGQAPRLLIYGSSTRATGIPDRFSGSGSGTDFTLTINKLEPEDFAIYYCQQYGRSSGFVFGPGTKVDIK
B13: H7-Ab13 (antibody, V domains shown)
VH: EVQLVESGPGLVKPSQTLSLTCTVSDGTIGSDAYHWSWIRQYPGRGLEWIGSFYYSGNTYYNPSLKSRLTISVDTSKNQFSLKLNSVTAADTAVYYCARNSAYCTDTRCYNGGGWFHPWGQGTTVTVSS
VL: DIVMTQSPGTLSLSPGERATLSCRASQSVSSTYLAWYQQKPGQAPRFLIYGASRRATGIPDRFSGSGSGTDFTLTISRVEPEDFTVYYCQQYGSSPITFGQGTRLEIK
B14: H1-Ab32 (antibody, V domains shown)
VH: EVQLVESGGGLVQPGGSLRLSCAASSFTFSNYAMSWVRQAPGKGLEWVSLINSGGGDKYYADSVKGRFIVSRDNSKNALYLQMNSLRAEDTAVYFCARVVGRETFGLVIPIYYFDYWGQGDLVTVSS
VL: EIVLTQSPATLSLSPGERATLSCRASQSVSSFLAWYQQKPGQAPRLLIYDASNRATGVPARFSGSGSGTDFTLTISSLEPEDFAVYYCQQCSNWPPLTFGGGTKVEIK
notes: IgG1; source: HEK293T, transfected with heavy and light chain plasmids; purified mAbs
B15: H1-Ab41 (antibody, V domains shown)
VH: QVQLQESGGGVVQPERSLRLSCAASGFKFSSYAMHWVRQAPGKGLEWVAVFWSDGTTKYYANSVRGRFTVSRDNSKNMLYLQINSLRAEDTAVYYCARGFLLPYYGSSGYEYFFDFWGQGTTVTVSS
VL: AIGMTQSPESLAVSLGERATINCKSGQSILHSSNNKNYLAWYQQKPGQPPKLVIYWASTRESGVPDRFSGSGSETDFTLTISSLQAEDVAVYYCQQYYSTPSFGGGTKVEIK
notes: as for B14
B16: H1-Ab56 (antibody, V domains shown)
VH: EVQLVQSGPGLVKPSETLSLTCTVSGGSISSDYWSWIRQPPGKGLEWIGYIHQNGRTNSNPSLRGRVSMLVDTSESQFSLKLGSVTAADTAVYYCARDQAGIRRSNAFDIWGQGTLVTVSS
VL: DIVMTQSPSSLSASVGDRVTITCRASQSISTYLNWYQQKPGKAPKLLIYAASTLQSGVPSRFSGSASGSEFTLTISSLQPEDFASYYCQQSYDIPQTFGPGTKVEIK
notes: as for B14
B17: H1-Ab30 (antibody, V domains shown)
VH: EVQLVQSGGGLVQPGGSLRLSCAASGFTFSSYAMSWVRQAPGKGLEWVSTISGSGISTYYADSVKGRFTISRDNSKNTLYLQMNSLRADDTAVYYCAKALATHIVMAGTLDFWGQGTLVTVSS
VL: EIVMTQSPATLSVSPEERATLSCRASQSVTNSLAWYQQKPGQAPRLLIYGASTRATGIPARFSGSGSGTEFTLTISSLQSEDFAVYYCQQYNNWPPLTFGGGTKVEIK
notes: as for B14
B18: H1-Ab43 (antibody, V domains shown)
VH: EVQLVESGGNLVQPGGSLTLSCAVSGFAFSNFEANWVRQAPGKGLEWVSYISKSGLTKYYSDSVKGRFTISRDNAKSSLYLQMNSLRAEDTAVYYCVSPIPVAGTMEIYWGQGTLVTVSS
VL: B17 VL with E1D, V3Q, S14F, E16G, V29I, T30R, N31S, S32D, A43P, G68E
notes: as for B14
B19: H1-Ab55 (antibody, V domains shown)
VH: EVQLVESGPGLVKPSETLSLTCTVSGGSISSDYWSWIRQAPGKGLEWLAYIHHNGRTNYNPSLGSRVAISIDTSRSQFSLKLGSVTAADTAVYYCARDQTGIRKSNAFDLWGQGTLVTVSS
VL: DIQLTQSPSSLSASVGDRVTITCRASQNIRSYLNWYQQKPGKAPKLLIYGVSTLQNGVPSRFSGSASGSDFTLTISSLQPEDFATYHCQQSYDTPQTFGPGTKVEIK
notes: as for B14
B20: H1-Ab19 (antibody, V domains shown)
VH: EVQLVESGGGLVKPGGSLRLSCAASGFTFSSYSMHWVRQAPGKGLEWVSSISSIGTYIYYADSVKGRFTISRDNAKNSLYLQLNSLRVEDTAVFYCATGVTSSYGGYSGYFDSWGQGTLVTVSS
VL: DIVMTQSPSSLSASVGDRVTITCQASQDISKHLNWYQQKPGKAPKLLIYDASNLETGVPSRFSGSGSGTDFSFTISSLQPEDIATYYCQQYDNPFLTFGGGTKVEIK
notes: as for B14
B21: H1-Ab59 (antibody, V domains shown)
VH: EVQLVESGPGLVKPSQTLSLTCTVSGGSVSSGGYSWTWIRQPAGKGLEWIGRIYFTGSTNYNPSLKSRITISVDTSKNQFSLRLSSVTAADTAVYYCAREDDFVWGSYRRFAYFDYWGQGTLVTVSS
VL: EIVMTQSPSSLSASVGDRVNITCQASQDISNYLNWYQQKPGEAPKLLIYGASSLQTGVPSRFSGSGSGTNFIFTISSLQPEDLATYYCQQYDNLPMYTFGQGTKVEIK
notes: as for B14

The first test concerns the target tetanus toxoid (Clostridium tetani, production strain …, UniProt P04958).
Test: not given
Conditions: not given
As to B1, the binding result was “binds”.

In the case of B2, the binding result is recorded as “binds”.

As for B3, the binding result is “binds”.

B4: the binding result is on record as “binds”.

B5: the binding result is listed as “binds”.

The target of the next test is H7N9 HA (A/Shanghai/1/2013) (Influenza A virus A/Shanghai/1/2013 …, strain).
Test: not given
Conditions: not given
Consider B6, for which the binding result is “binds”.

As to B7, the binding result is given as “binds”.

Regarding B8, the binding result is given as “binds”.

Consider B9, for which the binding result is given as “binds”.

Consider B10, for which the binding result is given as “binds”.

Consider B11, for which the binding result is “binds”.

With B12, the binding result is “binds”.

Take B13: the binding result is given as “binds”.

The next test has as its target T1, H1N1 HA (A/California/04/2009) (Influenza A virus A/California/04/2009 …, UniProt C3W5S1, strain).
T1 construct: source: bought: Sino Biological
Briefly: SPR. The conditions noted are these: both partners purified.
Take B14: the affinity, expressed as Kd, was 0.56 nM.

In the case of B15, the Kd was 0.0819 nM.

As for B16, the Kd was found to be 0.372 nM.

Molecule B17 registered a Kd of 0.066 nM.

The molecule B18 showed a Kd of 0.155 nM.

B19 showed a Kd of 0.467 nM.

In turn, B20 gave a Kd of 0.001 nM. Compared with the last molecule, the Kd is about 470-fold lower.

In the case of B21, the Kd was 14 nM.
